assay: soluble on expression in E. coli; label from the status in PepcDB or PDB records

| Sequence | soluble on expression in E. coli |
| --- | --- |
| MGSDKIHHHHHHMSHLLKPKPNLLLIDDDEDVLDACRQLFNLSGYQVRATNSPQKALEALSRDWDGVVISDIYMPAMHGLDLLAAVHHIDPQIPVIMITGHADIPLAVKAVKQGAADFIEKPLDPPTFLALVKKAATQRHQLIGQRQNIQDSLAGQLLGSSAQINDLREQLGQLALTDRDVMLEGPRGVGRNTLAALLHKLGPRAEGPLQQLECALVESPEKLQQAVDASRGGTLILRELEHLPTDSQRWLASFLLDQERRGNKEVRTIAILESQPETLVQEQTLTPECFYYFSQVRLRLPALCERPSDIVPLFMAFLKESCRRLSRKMPTVENRYLDNLKQHSWPGNVRELRNVAELYAVGIVKLANVQRIAAAPSVKGPLDELVDDYEKRLIEDALFLFSGRVSEAADYLNVPRKKLYLRMKKYGLDKECFKPVKPGRG | not soluble |
| AHHHHHHGSEYKPIRKVVSGNYAAAYAALHARVQVVAAYPITPQTSIIEKIAEFIANGEADIQYIPVESEHSAMAACIGASATGARTFTATSAQGLALMHEMLHWAAGARLPIVMVDVNRAMAPPWSVWDDQTDSLSQRDTGWMQFYAENNQEVYDGVLMAYKVAETVNVPAMVVESAFILSHTYDVVEMIPQELVDEFLPPRKPLYSLANFDEPIAVGALATPNDYYEFRYKLAKAHEEAKKVIKEVGKEFGERFGRDYSQMIETGYIDDADFVFMGMGSLMGTVKEAVDLLRKEGYKVGYAKVRWFRPFPKEELVEIAESVKGIAVLDRNFSFGQEGILFTESKGALYNSSAHPLMKNYIVGLGGRDVTVKDIKAIADDMKKVIESGKVDKEVVWYHLKR | soluble |
| AGNTSYFLRRKIFRKIMHITAPSHDQYGSSTLLVRLTNDVYLMEIMTFDFL | not soluble |
| GPGSMRTCASTLSHLCAQGPLRGSMHVTLHALVRFCAHVASSLRSGQATLHPSLPLRFSHPLRLPSARFSHSTGVLSLALPVMQHTHIHTLTHTYSSIYRRFTARLRLSDSTCYTQGSTHTHTQSICFSIHSPLSLSLSETSALLGAPSSSSFSATSPAYRVRTASSCNRLPDGHKHFRKYIYIYIYIYWALSRISLGASADLPWNVRIHRVRMTATEYQKLIGERRLSPEEEENLVQRLYFRQMKLTEQREEERRAILERTRAQMQKHISKDEEGRLVSRMYDQQVERFANSKAERDRKLEEEMHKNDKKMDSSEIDDQVRRIYEEELKRSQARREELYSRYMPTAEAKKIGKKELKGCVERLSHVDWEKRDEELFKKYVYPYDPKTTKISRDDEQAMANRLSTTKGAG | not soluble |
| MGSDKIHHHHHHMLTVNNVSLRYGGRKLFEDVNLKFTPGNCYGIIGANGAGKSTFLKILSGEIEPNTGDVSVDSNTRISVLKQDHFQYDEYEVLETVIMGNERLYSIMKEKDALYAKPDFSEEDGIKASTLEGEFAELNGWEAESEAATLLQGLGISTELHSKKMSELIGGEKVKVLLAQALFGNPGILLLDEPTNHLDIKSIAWLEEFLIDFEGTVIVVSHDRHFLNKVCTMIADVDYGKITLYVGNYDFWYKSSTLALEMTKDQNKKKEEKIKELKDFIARFSANASKSKQATSRKKMLDKLNLEDIKPSNRKYPFIGFKPEREPGNDILTVENLSKTIDGEKVLNNVSFIVSKDDKIALVGDNEIAQTTLFKILSGEMEPDSGSYKWGITITNAYFPKDNSEYFNDCDLSLVDWLRQYSEEKSETYIRGFLGRMLFSGEEALKKASVLSGGEKVRCMLAKTMLTNANFLMFDQPTNHLDLESITALNNGLTNYKSNLMFTSHDHEFIQTIANRIIEITNDGIIDRKCTYDEYLEIQ | not soluble |
| MPVNIPPLLPEQLLPIPGLSLGTAEASIKRPGRKDILVITLAENTRVAGVFTRNRFCAAPVTVARSHLTGSLPIRALVINTGNANAGTGQSGIDHAHATCASLARLIGCQTQQVLPFSTGVIMEPLPVEKIITHLPQALANLAPDNWFAAAQAIMTTDIVPKGVSRQIQINGTTVTITGIAKGSGMIHPNMATMLGYIATDAAVTQPLLDDLVRYATDRSFNCVTVDGDTSTNDALILMATGQAGNTPITVSTDPAFISLQAAITEVAALLAQMIVRDGEGATKFITVQVESGKTREECTKVAYAIAHSPLIKTACFASDPNLGRILAAIGYAGIEDLDVNLVQLYLGNILVAEHGGRAASYREEDGQRIMQAPEITIQVKLNRGNASTTVWTCDLSYDYVKINADYRSLEHHHHHH | not soluble |
| MGSDKIHHHHHHTQRWLSGNISNFQYLMHLNTLAGRCYNDLSQYPIFPWVLADYTSSQLDFNNISTFRDFSKPMGAQSPDRLEQFLKRFREWDDPSGETPPYMYGTHYSSAMIVVSYLVRLEPFTQQFLSLQGGHFDLADRMFHSVGDAWTSASRNNMADVKELIPEFFTLPEMFTNTNHFDLGVKQNGIHVNDVLLPAWCHGDPREFIRLHRQALESDYVSSHLHEWIDLIFGYKQNGEEAVKNSNLFHHLFYEGSVDFERIDDPLTRNATIGFVNNFGQIPTQLFKKPHPQK | not soluble |
| MGSDKIHHHHHHMDLRGRLIPDYRIDTPVDAPLEYRPAVTWRCERCGKLPTRGPCTCGKRCYYCRHCLIFGKLRTCDRLVTDPRPLDPVRPDHHTELNLTSDQQRIAEAIVRTIDQRKRLLVHAVCGAGKTPMLFPGIERALSTNRRVLITAPRADVVRELTGHLRRAFQQATIVSLFGGSEDRLGIGDITISTTHQLIHYRACFDVVFIDEVDAFPYRTDRTLHRYVRQATAPGASLILLSATPSLRDRRLPTVRLMRRYHGFPLPTPRLQVPYGKHDVVDWVLTHAGKPRLLFVPQVEALETWQTCLQQQGITCETVHAADPDRITKVARFRQTTGVLLTTTILERGVTLINVQVAVLDADHSFSSAALIQISGRVGRSADFPEGDVVLFANDRSDAMYEAIDHIKRANREGFR | not soluble |
| MTAPTAHDYDVVIIGGGPAGLTAAIYTGRAQLSTLILEKGMPGGQIAWSEEVENFPGFPEPIAGMELAQRMHQQAEKFGAKVEMDEVQGVQHDATSHPYPFTVRGYNGEYRAKAVILATGADPRKLGIPGEDNFWGKGVSTCATCDGFFYKGKKVVVIGGGDAAVEEGMFLTKFADEVTVIHRRDTLRANKVAQARAFANPKMKFIWDTAVEEIQGADSVSGVKLRNLKTGEVSELATDGVFIFIGHVPNTAFVKDTVSLRDDGYVDVRDEIYTNIPMLFAAGDVSDYIYRQLATSVGAGTRAAMMTERQLAALEVEGEEVTAAD | soluble |
| MPIKSVAIIGAGIAGLTAALAFARHGIDCDIIEQTGELAEVGAGLQLSPNAARILATLGVLPDIEARWTEPVSVDLASGKSLTTLLSLPMGAVARSRWGAPYGVLHRSTLQSALLQAVTRNPLCRLHLGKRIENATADVIAATTFRDHDLIVGADGVWSAARFSVPAAPTATFSGNVAWRFTVAAEEVPSAFNKTTVTAYLGSRGHIVAYPLKEVGGFNIVAIALGADPGATWRAESSGRQKALLLEQFRDFSPDIVRLLDSSENPTFWPLYQAGPGRWHNGRDTVLIGDAAHAMMPFAAQGAAMAIEDAFELAGTMAGSNGEKPLPVPQALAAFEALRLPRIEKARKRASLNRFAYHARGPVRIARDLVFSTRPPEAFLKDFDWLYGYHARGLEHHHHHH | soluble |
| MGSDKIHHHHHHMKYFVSRSIYTFNSGVEHSQANRTLLFNASGDQARYVTRDYNRLWVRDAERVNLNSTNVLNMYDFFQGTSAVECVQLPVREFKQLALNEYQLVEHGADYSTVDHAGRQLARINIMPGTVGLVGDIEYYDRFETVVSRENFDWRGFKSSIDYFHPDGSLGVRRFLNLAGEVVLENTYMNVEGQLQPTMWKLVNYHGKNYRFDTEDQLFLFFLNEVTQQTTDNVVVSDHRELDYVIADVENATSKWVALHGSHVDQGGTPFAAYSIALQIRAQDFDGIIVPTQEQQLELKEQFPELNVQVAPDVAISPELINSKPVWLRDRIAGRIIFSGRLEADKRPMEALKAFFKVLEQFLTLRWNLGDILTTKTC | not soluble |
| MGDQLDAVEVQAISPDGEITVKLGTGDAVDVQFKSDEYFKSVPHETLSHQLGRALTLLAVGRIRKRHQILEAEGFEVYGEDDAHWDKRVRVFREKRAQVKAAGRSPKRHIAIATVGLRDFKVRFERDVTRRLSRSEFSGEFGGAVAAVISEYSAQMTQLKTAMFT | not soluble |
| MPDMANVESFDLDHTKVKAPYVRLAGVKTTPKGDQISKYDLRFLQPNQGAIDPAAIHTLEHLLAGYMRDHLEGVVDVSPMGCRTGMYMAVIGEPDEQGVMKAFEAALKDTAGHDQPIPGVSELECGNYRDHDLAAARQHARDVLDQGLKVQETILLERGSHHHHHH | soluble |
| MGSDKIHHHHHHMKKITKIEGNLANSFIKPKTRVVAYCRVSTDSNEQLVSLQAQKAHYETYIKANPEWEYAGLYYDEGISGTKKENRSDLLRMLSDCETGRIDLIITKSISRFARNTTDCLEMVRKLIDLGVHIYFEKENINTGSMESELMLSILSGLAESESISISENTKWAIQRRFQNGTFKISYPPYGYQNIDGQMIVNPKQAEVVKYIFAEVLSGKGTQKVANDLNQKGIPSKRRGRWTATTIRGILTNEKYTGDVILQKTYTDSHFNRHTNYGEKNMYLVENHHEAIISHEDFQAVDAILNQRAKEKSIEKRNSKYLNRYSFSSKIICSECGSTFKRRIHSSGRKYIAWCCSKHISNITECSMQFIRDDDIKTAFVTMMNKLIFGQKFILRPLLEGLRNQNNAASFHRIEELEIKIENNMEQSQVLTGLMAKGYLEPALYNKEKNSLVQERERLLAEKDQLTRFVNGNLAKVEEVNHLLRFATKSKMLTAYEDELFENYVEKIIVFSREEVGFELKCGITLKERLVN | not soluble |
| SITSTVLPPVYNQQNEDTCIIRISVEDNNGNMYKSIMLTSQDKTPAVIQRAMSKHNLESDPAEEYELVQVISEDKELVIPDSANVFYAMNSQVNFDFILRKKN | soluble |
| MSLQCALYDAGRCRSCQWITQPIPEQLSAKTADLKNLLADFPVEEWCAPVSGPEQGFRNKAKMVVSGSVEKPLLGMLHRDGTPEDLCDCPLYPASFAPVFAALKPFIARAGLTPYNVARKRGELKYILLTESQSDGGMMLRFVLRSETKLAQLRKALPWLQAQLPQLKVITVNIQPVHMAIMEGETEIYLTEQQALVERFNDVPLWIRPQSFFQTNPAVASQLYATARDWVRQLPVKHMWDLFCGVGGFGLHCATPDMQLTGIEIALEAIACAKQSAAELGLTRLQFQALDSTQFATAQGEVPELVLVNPPRRGIGKPLCDYLSTMAPRFIIYSSCNAQTMAKDIRELPGYRIERVQLFDMFPHTAHYEVLTLLVKMEGHHHHHH | soluble |
| GMPTFNPELHAQTLNSERAYFVQPDADPAFTPHIGALVEMLTYARLTTLQAVEGLPEDQLWATAPGFANSIGTLLAHIAAVERVYHVLSFQGRDVTPEDDGAAYWGLTMGKEGTAPARLPTLDELRAELADARAETLRVFAAKDDAWLAEPLGPGWANQHWAWFHVMEDEVNHRGQLRLLRQVLAPEEGG | soluble |
| MSLTDLIVTNGAVLTMDPARPEAEAVAVADGRITAVGSRAEIERLAGPRTDMIDAGGGTVLPGFVESHLHLVLGGAELAHLQLAGVHGVEALTRAAQSFAAAHPDRPLLMAQGGDYGLLDRPMTRQDLDAILPDRPFAITAPDHHTVWANTAALRAAGLIEGASMPHGHEVVMGADGRATGELREFEAFAPVIALGGEARLNLGIATGEEPSPWPDAAERAIDRAKIARGLAHCAAHGITSMVNMDGNRYTLELLRELQRAGGLTARIRVPFHFKPHMALADLARAEAMTRDFDDDWLACNFVKMFMDGVLDSGTAYRLDDYPDAPGWRSEPLFEPARFAEIATAVDRRGLQIAVHAIGCGAVRTTLDGYAAARAANGARDSRHRIEHIELIDRADIPRLAALGVVASLQPPHPPGAMDFPLQPTLDRIGRSRWPDAYLCRTLAEAGAPVVFASDWPVTDVSVLRGLQAALTRRPYEGAADERLTLAESLRAYTAGGAWANHRERLTGTLRAGLAADLAILDGRLEARAADSLGSLGVARTLCGGRTTHRREGHHHHHH | not soluble |

Reference: the DeepSol protein solubility set
